Data published in patent US20230105029A1 (CHIA TAI TIANQING PHARMACEUTICAL GROUP, published 2023).
Where a chain is given by its changes, count along the chain named. Values belong to the binder of their own block, whether it stands above or below them.

Columns and labels:
[1] = molecular target: T1, cynomolgus monkey IL4Rα-his protein (cynomolgus monkey, UniProt A0A2K5V580 33-239); test: indirect ELISA, coated cyno IL4Rα-his
T1 construct: Bought protein; also called Cynomolgus IL4Rα; Cyno-IL4Rα-his; not shown: his tag

[2] = molecular target: T2, recombinant human IL4Rα-his protein (in house made) (human, UniProt P24394 26-232, limits assumed); test: competitive ELISA, blocks biotin-IL4 binding to coated IL4Rα-his
T2 construct: also called Human IL4Ra-his
Method: Serially diluted anti-IL4Rα antibodies or the controls (starting at 80 nM with a 4-fold serial dilution) in 2.5% w/v non-fatty milk in PBST, 100 μl per well, were added to the IL4Rα bound plates, and incubated with the human IL4Rα-his proteins at 37° C. for 40 minutes. Plates were washed 4 times using wash buffer, and then added and incubated for 40 minutes at 37° C. with 100 μl/well of 0.56 nM biotin-labeled human IL4 protein (Sino biological inc., Cat #11846-HNAE). Plates were washed again using wash buffer. Thereafter, the plates were added with 100 μl/well of streptavidin conjugated HRP (1:10000 dilution in PBST buffer, Jackson Immunoresearch, Cat #016-030-084) and incubated for 40 minutes at 37° C. Plates were washed again using wash buffer. Finally, TMB was added and the reaction was stopped using 1M H₂SO₄, and the absorbance was read at 450 nm. Data was analyzed using Graphpad Prism software and IC₅₀ values were reported.

[3] = molecular target: T3, human IL4Rα expressed on 293F-IL4Rα cells (human, UniProt P24394 26-825); test: flow cytometry, blocks biotin-IL4 binding to 293F-IL4Rα cells
T3 construct: whole, on cells; also called cell surface human IL4Rα
Method: Then, 1×10⁵ cells per well in 96 well-plates were incubated in 100 μL of the anti-IL4Rα antibodies or controls of various concentrations (starting at 80 nM with a 4-fold serial dilution) in FACS buffer for 40 minutes on ice. The plates were washed twice with FACS buffer, and added and incubated for 40 minutes at 4° C. in dark with 100 μl/well 1.67 nM biotin-labeled human IL4 protein (Sino biological inc., Cat #11846-HNAE). The plates were washed twice with FACS buffer, and then added and incubated for 40 minutes at 4° C. in dark with 100 μl/well R-Phycoerythrin Streptavidin (1:500 dilution in FACS buffer, Jackson Immunoresearch, Cat #016-110-084). Cells were washed twice and resuspended in FACS buffer. Fluorescence was measured using a Becton Dickinson FACS Canto II-HTS equipment. Data was analyzed using Graphpad Prism software and IC₅₀ values were reported.

[4] = molecular target: T2, recombinant human IL4Rα-his protein (in …); test: capture ELISA, biotin-IL4Rα-his
Method: Plates were washed once with wash buffer (PBS+0.05% w/v Tween-20, PBST) and then blocked with 200 μl/well blocking buffer (5% w/v non-fatty milk in PBST) for 2 hours at 37° C. Plates were washed again and incubated with 100 μl/well serially diluted anti-IL4Rα antibodies of the disclosure, the benchmark or negative control hIgG (human immunoglobulin (pH4) for intravenous injection, Hualan Biological Engineering Inc.) (5-fold dilution in 2.5% w/v non-fatty milk in PBST, starting at 66.7 nM) for 40 minutes at 37° C., and then washed 4 times again. Plates containing captured anti-IL4Rα antibodies were incubated with biotin-labeled human IL4Rα-his protein (in house made with SEQ ID NO: 57, 0.14 nM in 2.5% w/v non-fatty milk in PBST, 100 μl/well) for 40 minutes at 37° C., washed 4 times, and incubated with streptavidin conjugated HRP (1:10000 dilution in PBST, Jackson Immuno Research, Cat #016-030-084, 100 μl/well) for 40 minutes at 37° C. After a final wash, plates were incubated with 100 μl/well ELISA substrate TMB (Innoreagents, Cat #TMB-S-002). The reaction was stopped in 10 minutes at 25° C. with 50 μl/well 1M H₂SO₄, and the absorbance was read at 450 nm. Data was analyzed using Graphpad Prism software and EC₅₀ values were reported.
For the capture ELISA, 96-well micro plates were coated with 2 μg/ml goat anti-human IgG (AffiniPure Goat Anti-Human IgG, Fcγ fragment specific, Jackson Immunoresearch, Cat #109-005-098) instead of goat anti-mouse IgG Fey fragment, 100 μl/well.

[5] = molecular target: T2, recombinant human IL4Rα-his protein (in …); test: competitive ELISA: antibody mixed with biotin human IL4Rα-his, competitor plate-coated Benchmark
Method: The ability of the anti-IL4Rα antibodies of the disclosure to block benchmark-human IL4Rα binding was measured in a competitive ELISA assay. Briefly, the benchmark was coated on 96-well micro plates at 2 μg/mL in PBS, 100 μl per well, and incubated overnight at 4° C. The next day, plates were washed with wash buffer (PBS+0.05% w/v Tween-20, PBST), and blocked with 5% w/v non-fatty milk in PBST for 2 hours at 37° C. tiring plate blocking, the anti-IL4Rα antibodies of the disclosure or controls were diluted with biotin labeled human IL4Rα-his proteins (prepared in-house with SEQ ID NO: 57, 0.55 nM in 2.5% w/v non-fatty milk in PBST), starting at 100 nM with a 4-fold serial dilution, and incubated at 25° C. for 40 minutes. After plate washing, the antibody/IL4Rα-his mixtures were added to benchmark coated plates, 100 μl per well. After incubation at 37° C. for 40 minutes, plates were washed using wash buffer. Then the plates were added and incubated with 100 μl/well streptavidin conjugated HRP for 40 minutes at 37° C. to detect biotin-labeled human IL4Rα-his bound to plates. Plates were washed again using wash buffer. Finally, TMB was added and the reaction was stopped using 1M H₂SO₄, and the absorbance was read at 450 nm. Data was analyzed using Graphpad Prism software and IC₅₀ values were reported.

B2: chimeric antibody B8G11F2B7G5E8 (antibody, human IgG4 S228P, kappa, V domains shown)
VH: EVQLQQSGADLVRPGASVKLSCTASGFNIKDTYMHWVKQRPEQGLEWVGRIDPTNGYTIYASKFQGKATITADTSSNTAYMQLSSLTSGDTAVYHCVSRRPWFAYWGQGTLVTVSA
VL: DILMTQTPLSLPVSLGAQASISCRSSQSIVHSNGNTYLEWYLQKPGQSPKLLIYKVTNRFSGVPDRFSGSGSGTDFTLKISRVEAEDLGIYYCFQGSHVPYTFGGGTKLEIKR
notes: Mouse variable domains on human IgG4/kappa; also called Chimeric B8G11F2B7G5E8; chB8G11F2B7G5E8
EC50 [1]: 1.06 nM | IC50 [2]: 1.42 nM | EC50 [4]: 0.27 nM

B3: mouse antibody C2C1A1A1 (antibody, V domains shown)
VH: EVQLVESGGGLVQPGGSLKLSCAASGFTFSTYGMSWVRQTPDKRLELVATINSNGGSTSYPDSVKGRFTISRDNAKNTLYLQMSSLKSEDTAMFYCARFFRFRNAMDYWGQGTSVTVSS
VL: DIQMTQSPASLSASVGETVTITCRTSENIYSYLAWYQQKQGKSPQFLVYNAKTLAEGVPSRFSGSGSGTQFSLNINSLQSEDFGSYYCQHYYGPPTWTFGGGTKLEIK
notes: Mouse hybridoma mAb; also called Mouse C2C1A1A1
IC50 [3]: 0.44 nM | EC50 [4]: 0.03 nM | IC50 [5]: 0.0383 nM

B4: chimeric antibody C2C1A1A1 (antibody, human IgG4 S228P, kappa, V domains shown)
VH: B3 VH
VL: DIQMTQSPASLSASVGETVTITCRTSENIYSYLAWYQQKQGKSPQFLVYNAKTLAEGVPSRFSGSGSGTQFSLNINSLQSEDFGSYYCQHYYGPPTWTFGGGTKLEIKR
notes: Mouse variable domains on human IgG4/kappa; also called Chimeric C2C1A1A1; chC2C1A1A1
EC50 [1]: 0.6 nM | IC50 [2]: 2.46 nM | EC50 [4]: 0.05 nM

B6: mouse antibody B1D2F7D3B5 (antibody, V domains shown)
VH: EVKLVESGGGLVKPGGSLKLSCAASGFTFSSYAMSWVRQTPEKRLEWVASISSGDSTYYLDSVKGRFTISRDNAMNILYLQMSSLRSEDTAVYYCERSGGSAPYWGQGTLVSVSA
VL: QIVLTQSPAIMSASPGEMVTISCSASSSVSYMYWYQQKPGSSPKPWIYRTSNLASGVPARFSGSGSGTSYSLTISSMEAEDAATYYCQQYHSFPLTFGAGTKLELK
notes: Mouse hybridoma mAb
IC50 [3]: 0.78 nM | IC50 [5]: 0.024 nM

Next, values leading:

EC50 [1]: 0.5 nM | IC50 [2]: 1 nM | IC50 [3]: 0.8 nM | EC50 [4]: 0.14 nM | IC50 [5]: 0.0171 nM
B1: mouse antibody B8G11F2B7G5E8 (antibody, V domains shown)
VH: B2 VH
VL: DILMTQTPLSLPVSLGAQASISCRSSQSIVHSNGNTYLEWYLQKPGQSPKLLIYKVTNRFSGVPDRFSGSGSGTDFTLKISRVEAEDLGIYYCFQGSHVPYTFGGGTKLEIK
notes: Mouse hybridoma mAb; also called Mouse B8G11F2B7G5E8; mAb B8G11F2B7G5E8

IC50 [3]: 0.4 nM | IC50 [5]: 0.716 nM
B5: mouse antibody C2B2F7B7 (antibody, V domains shown)
VH: B3 VH with S59N, F94Y, F102I
VL: B3 VL with T25A, N74K, S80P, P94T
notes: Mouse hybridoma mAb

IC50 [3]: 0.75 nM | IC50 [5]: 0.0209 nM
B7: mouse antibody B9D1D11F8D8 (antibody, V domains shown)
VH: B6 VH with M75R, M82V, V92M, S112T
VL: B6 VL with E17D, S30N
notes: Mouse hybridoma mAb
